According to paper PMC6176576:

Target: mtPaf1 (subunit of the four-subunit mtPaf1 complex) (Myceliophthora thermophila)
Test: co-purification, SDS/PAGE

Row | stoichiometry N | Substance
1 | 1 | mtCdc73 (subunit of the four-subunit mtPaf1 complex) (natural protein)
2 | 1 | mtLeo1 (subunit of the four-subunit mtPaf1 complex) (natural protein)
